The text below walks through data of paper PMC6879014, “Biophysical screening methods for extracellular domain peptide receptors, application to natriuretic peptide receptor C ligands” (Chemical Biology & Drug Design, 2018).

Where “and” joins values, the source holds several entries; their conditions need not be identical. Identical values can stand only once. Bridge positions count the residues as written; N and C are the ends. Ends that are not written are not given here. * marks the point of attachment. 5FAM = O=C1OC2(c3ccc(O)cc3Oc3cc(O)ccc32)c2ccc(C(=O)*)cc21

Data set [1] has as its target T1, FL NPR‐C (Homo sapiens, UniProt P17342).
T1 construct: Human full‐length (FL) NPR‐C (27–541)‐10His‐Flag; 10His (C); Flag (C); purchased Peak Proteins, UK
T1 sequence (P17342 27-541): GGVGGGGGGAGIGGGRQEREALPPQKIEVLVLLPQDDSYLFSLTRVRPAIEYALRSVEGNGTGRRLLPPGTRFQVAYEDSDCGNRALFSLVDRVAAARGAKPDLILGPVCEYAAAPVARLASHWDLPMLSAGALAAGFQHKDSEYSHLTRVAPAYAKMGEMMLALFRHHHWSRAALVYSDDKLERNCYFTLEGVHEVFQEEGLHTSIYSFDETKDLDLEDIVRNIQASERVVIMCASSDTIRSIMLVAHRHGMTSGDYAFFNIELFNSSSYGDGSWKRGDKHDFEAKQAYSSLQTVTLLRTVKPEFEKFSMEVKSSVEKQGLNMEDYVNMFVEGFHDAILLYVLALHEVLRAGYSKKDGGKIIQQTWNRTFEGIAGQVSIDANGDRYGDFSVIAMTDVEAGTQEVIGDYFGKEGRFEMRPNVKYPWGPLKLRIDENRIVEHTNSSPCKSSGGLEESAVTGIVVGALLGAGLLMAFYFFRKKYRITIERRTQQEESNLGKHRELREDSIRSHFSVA
Briefly: Thermal shift assay (Protein Thermal Shift Dye Kit). Type of data set: binding. The note with it: for ΔTm: FL NPR‐C 0.1 mg/ml, 1× dye, ramp 25–99°C, T m mean across four replicates. The procedure:
Thermal shift assays were performed using Thermo Fisher Scientific Protein Thermal Shift™ Dye Kit, and samples were prepared according to the accompanying protocol.17 A solution of Protein Thermal Shift™ Dye was always prepared fresh from the 1,000× stock. Optimization experiments were performed by titrating NPR‐C protein (0.1, 0.05 and 0.01 mg/ml) and Protein Thermal Shift™ Dye concentration (80, 8 and 1×) to identify conditions that achieved melt curves with the greatest dynamic fluorescence range and least standard error in T m (melt temperature) values. […] The total volume for each reaction was 20.0 μl. Each melt reaction was mixed at least 10 times, and the plate was sealed with MicroAmp® Optical Adhesive Film. The plate was then spun it at 112 g for 1 min and placed on ice until measurement. Thermal melt reactions were performed and analysed using a 7500 Real‐Time PCR System®. A 5‐carboxy‐X‐rhodamine (ROX) reporter and a continuous temperature ramp of 25–99°C were used (2 min per step). Optical filters were set at 580 nm (excitation) and 623 nm (emission). The T m for each sample was obtained by differentiating the original fluorescence melt curve using OriginPro mathematical and peak identification functions. The reported T m values are the mean across four replicates.

The target in data set [2] is NPR‐C. The note with it: literature value in Table 2; read-out: K i, literature; cited from earlier work. The text has this:
Table 2 Summary of control peptide FP analyses | column: K i (competitive; nM)

The target of data set [3] is T2, extracellular domain (ECD) NPR‐C (27–481)‐6His (Homo sapiens, UniProt P17342).
T2 construct: extracellular domain (ECD) NPR‐C (27–481)‐6His; 6His (C); purchased Peak Proteins, UK
T2 sequence (P17342 27-481): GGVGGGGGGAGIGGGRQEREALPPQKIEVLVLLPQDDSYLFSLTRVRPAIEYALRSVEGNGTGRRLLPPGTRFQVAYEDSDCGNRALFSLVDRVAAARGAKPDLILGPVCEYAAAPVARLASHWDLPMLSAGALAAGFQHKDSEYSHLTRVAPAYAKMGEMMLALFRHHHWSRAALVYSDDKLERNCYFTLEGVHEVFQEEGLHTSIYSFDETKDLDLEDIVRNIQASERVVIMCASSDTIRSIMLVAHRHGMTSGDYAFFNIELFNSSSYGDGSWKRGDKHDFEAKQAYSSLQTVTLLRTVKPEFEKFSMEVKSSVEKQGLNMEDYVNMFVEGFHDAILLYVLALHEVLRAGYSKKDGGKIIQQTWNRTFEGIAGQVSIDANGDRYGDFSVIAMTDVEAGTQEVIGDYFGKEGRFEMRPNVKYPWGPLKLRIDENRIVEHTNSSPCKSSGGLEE
Kind of data set: Surface plasmon resonance, immobilized extracellular domain NPR‐C. In kind it is binding. The note with it: SPR, experimentally observed R max as percentage of theoretical R max (quality control), each table line a separate run. On the technique in general: SPR reads the build-up and loss of mass on a sensor chip optically.

The target in data set [4] is T3, Human full‐length (FL) NPR‐C (27–541)‐10His‐Flag (Homo sapiens, UniProt P17342).
T3 construct: Human full‐length (FL) NPR‐C (27–541)‐10His‐Flag; 10His (C); Flag (C); purchased Peak Proteins, UK
T3 sequence (P17342 27-541): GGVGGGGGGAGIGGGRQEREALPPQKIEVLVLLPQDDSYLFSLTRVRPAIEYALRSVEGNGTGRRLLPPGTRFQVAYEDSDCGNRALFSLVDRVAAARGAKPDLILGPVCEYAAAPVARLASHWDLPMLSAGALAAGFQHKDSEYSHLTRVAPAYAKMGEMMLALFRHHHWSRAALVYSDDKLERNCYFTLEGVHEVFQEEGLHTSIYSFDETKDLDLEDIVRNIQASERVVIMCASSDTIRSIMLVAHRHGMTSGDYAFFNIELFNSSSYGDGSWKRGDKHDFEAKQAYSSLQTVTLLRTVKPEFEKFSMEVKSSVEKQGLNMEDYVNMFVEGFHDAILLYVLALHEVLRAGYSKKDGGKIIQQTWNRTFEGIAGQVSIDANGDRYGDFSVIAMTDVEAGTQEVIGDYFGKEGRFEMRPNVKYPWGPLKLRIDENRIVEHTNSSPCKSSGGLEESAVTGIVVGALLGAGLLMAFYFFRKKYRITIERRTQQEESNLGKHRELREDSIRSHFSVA
Kind of data set: Surface plasmon resonance, immobilized full‐length NPR‐C. The note with it: SPR, experimentally observed R max as percentage of theoretical R max (quality control), each table line a separate run. Type of data set: binding.

In data set [5] the target is T4, Human full-length (FL) NPR-C (27–541)-10His-Flag (human, UniProt P17342-2 27-540).
T4 construct: natriuretic peptide receptor C (NPR-C), human, residues 27-541; Primarily a disulphide-bonded dimer (~130 kDa) on non-reducing SDS-PAGE; The tag's end is read from the construct's name (27–541)-10His-Flag; also called natriuretic peptide receptor C; natriuretic peptide receptor type-C; source: expressed and isolated at Peak Proteins, UK; not shown: 10His, C-terminal, kept; Flag, C-terminal, kept
T4 sequence (looked up): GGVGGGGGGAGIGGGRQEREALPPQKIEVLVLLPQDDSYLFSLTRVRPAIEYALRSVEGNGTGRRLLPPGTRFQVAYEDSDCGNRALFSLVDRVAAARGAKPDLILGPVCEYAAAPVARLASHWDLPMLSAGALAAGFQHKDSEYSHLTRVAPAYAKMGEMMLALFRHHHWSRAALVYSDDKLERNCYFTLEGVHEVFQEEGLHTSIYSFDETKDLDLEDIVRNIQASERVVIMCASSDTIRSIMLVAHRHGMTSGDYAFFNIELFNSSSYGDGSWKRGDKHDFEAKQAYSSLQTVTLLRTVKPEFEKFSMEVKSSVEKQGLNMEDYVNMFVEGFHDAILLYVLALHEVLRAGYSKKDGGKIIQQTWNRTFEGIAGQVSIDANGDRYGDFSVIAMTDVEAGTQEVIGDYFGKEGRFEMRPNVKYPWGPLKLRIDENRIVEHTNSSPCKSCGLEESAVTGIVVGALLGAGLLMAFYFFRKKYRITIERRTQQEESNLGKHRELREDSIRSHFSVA
Kind of data set: fluorescence polarisation; competition against 15 nM Flu-P19 probe; FL NPR-C 150 nM or ECD NPR-C 400 nM; competitor 4.89 nM-2.5 uM; HEPES buffer, 3% DMSO; Ki computed from IC50 with a web-based converter. The note with it: both partners purified. (Polarisation of emitted light reports the rotation of a fluorescent probe.)

Data set [6] addresses T5, extracellular domain (ECD) NPR-C (27–481)-6His (human, UniProt P17342-2 27-481).
T5 construct: natriuretic peptide receptor C (NPR-C), human, extracellular domain, residues 27-481; Mainly monomer (~55 kDa) on non-reducing SDS-PAGE; the discussion says ~25% of the molecules are disulphide-bonded; The tag's end is read from the construct's name; also called (27–481)-6His (ECD); extracellular NPR-C; source: expressed and isolated at Peak Proteins, UK; not shown: 6His, C-terminal, kept
T5 sequence (looked up): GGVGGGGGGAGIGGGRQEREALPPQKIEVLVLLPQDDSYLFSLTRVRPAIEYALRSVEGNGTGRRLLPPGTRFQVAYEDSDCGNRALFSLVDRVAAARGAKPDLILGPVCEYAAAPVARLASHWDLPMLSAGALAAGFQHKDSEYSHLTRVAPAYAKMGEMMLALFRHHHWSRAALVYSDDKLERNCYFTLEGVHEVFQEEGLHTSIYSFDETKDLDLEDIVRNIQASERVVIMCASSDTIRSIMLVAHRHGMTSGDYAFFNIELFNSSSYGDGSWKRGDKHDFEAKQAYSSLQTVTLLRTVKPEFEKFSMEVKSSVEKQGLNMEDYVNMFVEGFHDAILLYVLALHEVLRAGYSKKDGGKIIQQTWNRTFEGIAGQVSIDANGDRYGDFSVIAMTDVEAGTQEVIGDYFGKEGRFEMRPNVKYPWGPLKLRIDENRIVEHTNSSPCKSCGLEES
The data set is described as above. The conditions noted are these: both partners purified.

The target of data set [7] is T4, Human full-length (FL) NPR-C …. Kind of data set: thermal shift; Protein Thermal Shift Dye Kit; FL NPR-C 0.1 mg/ml, 1x dye; ligand at 1:1 or 10:1 ratio to the protein; ramp 25-99°C; Tm mean of four replicates. The conditions noted are these: both partners purified.
For data set [8] the target is unchanged. Briefly: fluorescence polarisation; competition against 15 nM Flu-P19 probe; FL NPR-C 150 nM or ECD NPR-C 400 nM; competitor 4.89 nM-2.5 uM; HEPES buffer, 3% DMSO; Ki computed from IC50 with a web-based converter. The note with it: both partners purified. This is another data set of the same source.
Data set [9] shares this target. Briefly: SPR; steady-state affinity analysis of Flu-P19 on immobilised FL NPR-C. The conditions noted are these: both partners purified.

In the case of C‐type natriuretic peptide [CNP], the “ΔTm, approximate shift given in text” value in data set [1] (FL NPR‐C, ratio not stated in the sentence (Figure 9c,d)) was ~ 11 °C. Further, the ΔTm entry is “+8.2 °C” in [1] (NPRC + ligand (1:1)) and “+11.7 °C” in data set [1] (NPRC + ligand (1:10)). In addition, the Ki in data set [2] is 0.023 nM. The “% theoretical R max” value was found to be 51% in data set [3] and 31% in data set [4].

B1: C-type natriuretic peptide (ligand)
chain: GLSKGCFGLKLDRIGSMSGLGC
modifications: disulfide 6-22 (inferred)
Turning to B1, the IC50 in data set [5] was 68.4 nM and 142 nM and 111 nM; in data set [8], 142 nM. Also, the Ki in [5] came out at 0.1 nM; in [6] it was 0.1 nM; in data set [8] it was 0.49 nM. For the same molecule, in data set [7], the ΔTm is ~11 °C.

B2: 5-carboxyfluorescein N-terminus labelled GLSKG[CFGRSLDRIGSLSGLGC]NS (Flu-P19) (peptide)
peptide: 5FAM-GLSKGCFGRSLDRIGSLSGLGCNS
modifications: not fully specified (bridges); cysteine pairing not given here
notes: P19, a peptide identified by phage display (Deschênes et al., cited); also called Flu-P19 probe; source: synthetic peptide, bought: Peptide Protein Research Ltd, UK
Turning to B2, the Kd in data set [9] was ~10 nM.

Usually ΔTm stands for the shift of the melting midpoint relative to a reference. Broadly, the IC50 is the concentration at which inhibition is half-maximal. Read a low IC50 as inhibition by little substance. As usually defined, the Kd is the equilibrium constant for the complex coming apart. Higher therefore signals lower affinity.
